The text below walks through data of patent US20210024620A1.

For assay [1], the target named is Human CD16a (FcγRIIIa residues 17-208 with C-terminal HPC4 tag and valine at position 158) (human) (UniProt P08637). The assay can be described thus: Biacore SPR, HPC4-tagged FcγRIIIa-V158 captured by anti-HPC4, pH 7.4. Background: SPR reads the build-up and loss of mass on a sensor chip optically.
For assay [2], the target named is biotinylated human FcRn (human) (UniProt P55899). The assay can be described thus: Biacore, biotin-captured hFcRn, pH 7.4.
Chain of biotinylated human FcRn (human) (P55899 24-297 limits assumed, chain 1 of 2): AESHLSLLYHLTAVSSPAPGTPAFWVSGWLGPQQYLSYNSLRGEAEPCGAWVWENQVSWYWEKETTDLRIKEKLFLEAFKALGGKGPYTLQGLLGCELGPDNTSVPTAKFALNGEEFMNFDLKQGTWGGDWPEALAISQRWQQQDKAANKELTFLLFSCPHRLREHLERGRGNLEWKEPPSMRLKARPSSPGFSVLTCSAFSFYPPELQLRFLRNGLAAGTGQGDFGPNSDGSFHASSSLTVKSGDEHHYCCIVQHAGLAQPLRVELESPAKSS
Chain of biotinylated human FcRn (human) (P61769 21-119 limits assumed, chain 2 of 2, further chain): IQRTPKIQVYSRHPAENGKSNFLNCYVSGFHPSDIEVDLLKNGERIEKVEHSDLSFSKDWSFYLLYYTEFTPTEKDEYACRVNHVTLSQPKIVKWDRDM
Assay [3] has as its target biotinylated cynomolgus FcRn (cynomolgus) (UniProt Q8SPV9). Nature of the assay: Biacore, biotin-captured cFcRn, pH 7.4, 1000 nM antibody.
The target in assay [4] is biotinylated human FcRn (human) (UniProt P55899). Nature of the assay: Biacore, biotin-captured hFcRn, pH 8.0.
The target of assay [5] is biotinylated cynomolgus FcRn (cynomolgus) (UniProt Q8SPV9). Nature of the assay: Biacore, biotin-captured cFcRn, pH 7.4.
Assay [6] has the same target. Nature of the assay: Biacore, biotin-captured cFcRn, pH 9.0, 1000 nM antibody.
In assay [7] the target is biotinylated human FcRn (human) (UniProt P55899). The assay can be described thus: Biacore, biotin-captured hFcRn, pH 7.4, 1000 nM antibody.
Assay [8] deals with biotinylated cynomolgus FcRn (cynomolgus) (UniProt Q8SPV9). The assay can be described thus: Biacore, biotin-captured cFcRn, pH 6.0.
Assay [9] addresses biotinylated human FcRn (human) (UniProt P55899). Nature of the assay: Biacore, biotin-captured hFcRn, pH 9.0, 1000 nM antibody.
Assay [10] has the same target. The assay can be described thus: Biacore, biotin-captured hFcRn, pH 6.0.
The target in assay [11] is biotinylated cynomolgus FcRn (cynomolgus) (UniProt Q8SPV9). Nature of the assay: Biacore, biotin-captured cFcRn, pH 8.0.
For assay [12] the target is unchanged. The assay can be described thus: Biacore, biotin-captured cFcRn, pH 8.0, 1000 nM antibody.
Assay [13] deals with biotinylated human FcRn (human) (UniProt P55899). Nature of the assay: Biacore, biotin-captured hFcRn, pH 8.0, 1000 nM antibody.
For assay [14], the target named is biotinylated human FcRn (p51 subunit residues 24-297 with C-terminal Avi-tag; beta2-microglobulin residues 21-119) (human) (UniProt P55899). The assay can be described thus: Biacore SPR, pH 7.4, steady state.
Chain of biotinylated human FcRn (p51 subunit residues 24-297 with C-terminal Avi-tag; beta2-microglobulin residues 21-119) (human) (P55899 24-297 limits assumed, chain 1 of 2): as the sequence (P55899 24-297 limits assumed, chain 1 of 2) above
Chain of biotinylated human FcRn (p51 subunit residues 24-297 with C-terminal Avi-tag; beta2-microglobulin residues 21-119) (human) (P61769 21-119 limits assumed, chain 2 of 2, further chain): as the sequence (P61769 21-119 limits assumed, chain 2 of 2, further chain) above
Assay [15] shares this target. The assay can be described thus: Biacore SPR, pH 6.0.
For assay [16] the target is unchanged. The assay can be described thus: Biacore; inverse ratio (RU at pH 7.4 over affinity at pH 6.0).
Assay [17] deals with rat FcRn (rat) (UniProt P13599). The assay can be described thus: Biacore, pH 6.0, apparent KD.
Chain of rat FcRn (rat) (P13599 23-298 limits assumed, chain 1 of 2): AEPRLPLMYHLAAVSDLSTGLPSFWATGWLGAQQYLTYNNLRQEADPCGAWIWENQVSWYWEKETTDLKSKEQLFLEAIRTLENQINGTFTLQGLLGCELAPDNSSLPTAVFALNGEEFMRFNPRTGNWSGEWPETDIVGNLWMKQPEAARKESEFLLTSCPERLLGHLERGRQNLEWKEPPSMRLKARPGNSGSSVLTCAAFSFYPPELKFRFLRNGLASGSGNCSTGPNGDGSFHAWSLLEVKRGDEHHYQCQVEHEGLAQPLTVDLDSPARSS
Chain of rat FcRn (rat) (P07151 21-119 limits assumed, chain 2 of 2, further chain): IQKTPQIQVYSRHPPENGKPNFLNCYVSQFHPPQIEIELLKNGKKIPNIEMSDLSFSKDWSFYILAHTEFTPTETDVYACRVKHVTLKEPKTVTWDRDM
For assay [18], the target named is biotinylated human FcRn (human) (UniProt P55899). Nature of the assay: Biacore, pH 6.0, apparent KD.
Assay [19] concerns the target biotinylated human FcRn (p51 subunit residues 24-297 with C-terminal Avi-tag; beta2-microglobulin residues 21-119) (human) (UniProt P55899). The assay can be described thus: Biacore; affinity at pH 6.0 (M^-1) over steady state RU at pH 7.4.
The target of assay [20] is FcRn immobilised on the FcRn affinity column (biotinylated cynoFcRn in one experiment, biotinylated hFcRn in another). The assay can be described thus: FcRn affinity chromatography, linear pH gradient; species of the immobilised FcRn not given.
In assay [21] the target is rat FcRn (rat) (UniProt P13599). The assay can be described thus: Biacore, pH 7.4, steady state response.
In assay [22] the target is biotinylated human FcRn (human) (UniProt P55899). The assay can be described thus: Biacore, pH 7.4, steady state response.
Assay [23] has as its target rat FcRn (rat) (UniProt P13599). The assay can be described thus: Biacore, pH 6.0.
The target of assay [24] is biotinylated human FcRn (human) (UniProt P55899). Nature of the assay: Biacore, pH 6.0.
Assay [25] addresses Human CD16a (FcγRIIIa V158) with C-terminal HPC4 tag (human) (UniProt P08637). Nature of the assay: Biacore, FcγRIIIa V158 captured, steady-state fit, apparent KD.
Assay [26] has as its target rat FcRn (rat) (UniProt P13599). The assay can be described thus: Biacore SPR, pH 6.0.
Assay [27] concerns the target biotinylated human FcRn (human) (UniProt P55899). Nature of the assay: Biacore SPR, pH 6.0.
Assay [28] has as its target rat FcRn (rat) (UniProt P13599). The assay can be described thus: Biacore SPR, pH 7.4.
Assay [29] has as its target biotinylated human FcRn (human) (UniProt P55899). The assay can be described thus: Biacore SPR, pH 7.4.

Chain of Human CD16a (FcγRIIIa V158) with C-terminal HPC4 tag (human) (P08637 17-208 F176V): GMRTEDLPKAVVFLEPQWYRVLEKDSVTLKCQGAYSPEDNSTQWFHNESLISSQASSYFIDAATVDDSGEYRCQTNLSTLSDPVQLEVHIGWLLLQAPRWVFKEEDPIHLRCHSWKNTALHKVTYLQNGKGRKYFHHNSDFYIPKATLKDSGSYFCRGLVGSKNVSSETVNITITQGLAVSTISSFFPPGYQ
Chain of Human CD16a (FcγRIIIa residues 17-208 with C-terminal HPC4 tag and valine at position 158) (human) (P08637 17-208 F176V): as above

“YTEKF benchmark (M252Y/S254T/T256E/H433K/N434F) hIgG1 (antibody)” showed a FcγRIIIa Binding Steady State RU in [1] of 207 RU.
As to “YTEKF hIgG1 benchmark (M252Y/S254T/T256E/H433K/N434F) (antibody)”, the Kd in assay [2] stood at 74 nM; in assay [4], 2400 nM; in assay [5], 76 nM; in assay [8], 8.3 nM; in assay [10] it was 15 nM; in [11], 3200 nM. Besides, the Steady State RU in assay [3] worked out at 152 RU; in assay [6], 3.8 RU; in assay [7], 132 RU; in [9], 2.7 RU; in assay [12], 268 RU.
As for “mAb1 YDQF (M252Y/T256D/T307Q/N434F) (antibody)”, the Kd worked out at 82 nM in assay [2]; 2700 nM in assay [4]; 95 nM in assay [5]; 4.3 nM in assay [8]; 2900 nM in [11]. In addition, the Steady State RU in [3] was found to be 176 RU; in [13], 196 RU; in [6], 2.2 RU; in assay [7], 140 RU; in assay [9], 1.4 RU; in assay [12], 245 RU. The Steady State Binding, pH 7.4 (RU) in assay [14] is 68.6 RU. The substance also displayed a Ka in assay [15] of 1.11e+08 M⁻¹.
As to “mAb1 YDQY (M252Y/T256D/T307Q/N434Y) (antibody)”, the Kd in assay [2] came out at 50 nM; in assay [4] it was 670 nM; in assay [5], 56 nM; in assay [8], 1.9 nM; in [10] it was 2.7 nM; in [11] it was 490 nM. Besides, the Steady State RU amounted to 196 RU in assay [3]; 264 RU in assay [13]; 6.3 RU in assay [6]; 157 RU in assay [7]; 4.6 RU in assay [9]; 325 RU in assay [12]. In addition, the Steady State Binding, pH 7.4 (RU) in assay [14] is 80.2 RU. Also, the Ka in [15] is 2.35e+08 M⁻¹.
In the case of “mAb1 YDTY (M252Y/T256D/N434Y) (antibody)”, the Kd in [2] worked out at 76 nM; in assay [4], 8700 nM; in assay [5], 64 nM; in assay [8] it was 13 nM; in assay [10] it was 15 nM; in assay [11], 2500 nM. Also, the Steady State RU was 134 RU in assay [3]; 141 RU in [13]; 1.9 RU in assay [6]; 120 RU in [7]; 0.6 RU in assay [9]; 183 RU in assay [12]. In assay [14], the Steady State Binding, pH 7.4 (RU) was 65.4 RU. In assay [15], this substance displayed a Ka of 9.01e+07 M⁻¹.
For the substance “mAb1 YDWF (M252Y/T256D/T307W/N434F) (antibody)”, the Kd was 194 nM in [2]; 1300 nM in assay [4]; 115 nM in assay [5]; 8.6 nM in [8]; 680 nM in [11]. The Steady State RU in [3] amounted to 173 RU; in assay [13], 235 RU; in assay [6], 4.6 RU; in assay [7], 124 RU; in assay [12] it was 313 RU. Also, the Steady State Binding, pH 7.4 (RU) in [14] worked out at 71.8 RU. In addition, the Ka in assay [15] stood at 1.66e+08 M⁻¹. In assay [1], the FcγRIIIa Binding Steady State RU amounted to 128 RU.
By koff is commonly meant the first-order rate constant of dissociation. Usually kon stands for a measure of how fast the partners come together. With “mAb1 YEQF (M252Y/T256E/T307Q/N434F) (antibody)”, in [10], the Kd was 15 nM, the koff turned out to be 0.0121 s⁻¹ and the kon came to 790000 M⁻¹ s⁻¹. Besides, in assay [1], the FcγRIIIa Binding Steady State RU is 226 RU.
On to “mAb1 YEQN (M252Y/T256E/T307Q) (antibody)”, for which the Ratio in assay [16] came out at 3.31e-06. In [14], the Steady State Binding, pH 7.4 (RU) was determined as 15.2 RU. Further, the Kd with rat FcRn (rat) [17] amounted to 7.8 nM; in assay [18], 218 nM; in assay [25], 1620 nM. Further, the Ratio (pH 6.0/pH 7.4) in assay [19] came to 302000. Further, the FcRn affinity column elution pH in [20] turned out to be 8.12 pH. In addition, the Steady State RU worked out at 61.8 RU in the assay with rat FcRn (rat) [21] and 15.2 RU in assay [22]. Also, the results for the koff (with rat FcRn (rat) [23]; in assay [24]) were 0.0004 s⁻¹ and 0.041 s⁻¹, respectively. Further, the on-rate constant (kon) came to 5000 M⁻¹ s⁻¹ with rat FcRn (rat) [23] and 190000 M⁻¹ s⁻¹ in assay [24]. The substance also registered a Ka in [15] of 4.59e+06 M⁻¹.
In the case of “mAb1 YEQY (M252Y/T256E/T307Q/N434Y) (antibody)”, the Kd came to 79 nM in assay [2]; 2100 nM in assay [4]; 80 nM in [5]; 3.7 nM in assay [8]; 4.8 nM in [10]; 2500 nM in assay [11]. Further, the Steady State RU is 157 RU in [3]; 213 RU in assay [13]; 3.4 RU in assay [6]; 136 RU in assay [7]; 2.4 RU in assay [9]; 264 RU in [12].
Regarding mAb1 YETN (M252Y/T256E) (antibody), the Ratio (pH 6.0/pH 7.4) in assay [16] amounted to 1.25e-06; in assay [19], 797000. Further, in [14], the Steady State Binding, pH 7.4 (RU) was 9.8 RU. The Kd came out at 8.4 nM with rat FcRn (rat) [17]; 128 nM in [18]; 878 nM in assay [25]; 8.43 nM with rat FcRn (rat) [26]; 128 nM in assay [27]. The substance further had a FcRn affinity column elution pH in assay [20] of 7.83 pH. In addition, the Steady State RU worked out at 55.1 RU with rat FcRn (rat) [21], 9.8 RU in assay [22], 55.1 RU with rat FcRn (rat) [28] and 9.8 RU in assay [29]. Besides, the off-rate constant (koff) with rat FcRn (rat) [23] came out at 0.0027 s⁻¹; in [24], 0.076 s⁻¹; with rat FcRn (rat) [26], 0.00273 s⁻¹; in assay [27], 0.0757 s⁻¹. Moreover, the kon with rat FcRn (rat) [23] was determined as 32000 M⁻¹ s⁻¹; in assay [24], 590000 M⁻¹ s⁻¹; with rat FcRn (rat) [26], 324000 M⁻¹ s⁻¹; in assay [27], 592000 M⁻¹ s⁻¹. Moreover, the Ka in [15] worked out at 7.81e+06 M⁻¹.
In assay [10], “mAb1 YEWF (M252Y/T256E/T307W/N434F) (antibody)” displayed a Kd of 13 nM, a koff of 0.0103 s⁻¹ and a kon of 810000 M⁻¹ s⁻¹. In assay [1], this substance returned a FcγRIIIa Binding Steady State RU of 163 RU.
mAb1 YTWN (M252Y/T307W) (antibody) had a Steady State Binding, pH 7.4 (RU) in [14] of 15.9 RU. In addition, the Kd with rat FcRn (rat) [17] was 5.2 nM; in assay [18] it was 118 nM; in [25], 896 nM; with rat FcRn (rat) [26], 5.21 nM; in [27], 118 nM. Also, in assay [19], the Ratio (pH 6.0/pH 7.4) was 533000. In assay [20], the FcRn affinity column elution pH came out at 8.14 pH. Moreover, the Steady State RU was 66.1 RU in the assay with rat FcRn (rat) [21], 15.9 RU in [22], 66.1 RU with rat FcRn (rat) [28] and 15.9 RU in assay [29]. Further, the koff is 0.0011 s⁻¹ in the assay with rat FcRn (rat) [23], 0.057 s⁻¹ in assay [24], 0.00109 s⁻¹ with rat FcRn (rat) [26] and 0.057 s⁻¹ in [27]. Besides, the kon worked out at 21000 M⁻¹ s⁻¹ with rat FcRn (rat) [23], 480000 M⁻¹ s⁻¹ in assay [24], 208000 M⁻¹ s⁻¹ with rat FcRn (rat) [26] and 483000 M⁻¹ s⁻¹ in [27]. In addition, the Ka in assay [15] was found to be 8.47e+06 M⁻¹.
Take “mAb1 YTWY (M252Y/T307W/N434Y) (antibody)”: the Kd was found to be 65 nM in [2]; 2500 nM in assay [4]; 70 nM in assay [5]; 7.7 nM in [8]; 1100 nM in assay [11]. Moreover, the Steady State RU in assay [3] stood at 159 RU; in assay [13], 232 RU; in assay [6], 6.5 RU; in [7] it was 133 RU; in [9], 4 RU; in assay [12] it was 292 RU. For the same substance, the Steady State Binding, pH 7.4 (RU) in assay [14] stood at 75.1 RU. In addition, in [15], the Ka worked out at 1.06e+08 M⁻¹.
